{"source": "paper PMC4897654", "about": "“hSSB1 (NABP2/OBFC2B) is regulated by oxidative stress” (Scientific Reports, 2016)", "key": {"[1]": {"biological_target": "the molecule itself", "assay": "non-reducing SDS-PAGE; recombinant hSSB1 proteins purified under non-reducing conditions, no reducing agent; Coomassie blue (2 μg) and anti-hSSB1 immunoblot (500 ng)"}, "[2]": {"biological_target": "the molecule itself", "assay": "SEC-MALS; non-reduced (oxidized) protein, ~200-250 μg on Superose 12 10/30; 20 mM Tris pH 7, 100 mM NaCl, 1 mM EDTA, without TCEP"}, "[3]": {"biological_target": "the molecule itself", "assay": "non-reducing SDS-PAGE with immunoblot; whole cell lysates of U2OS cells (2% O2) treated with 250 μM H2O2 or 30 mM KBrO3 for 30 min; loading buffer without DTT; probed for endogenous hSSB1"}}}
{"protein": "recombinant C99S hSSB1 (natural protein, human, UniProt Q9BQ15 1-211, looked up, human hSSB1 (NABP2/OBFC2B) with cysteine 99 mutated to serine; source: E. coli T7 shuffle strain, purified under non-reducing conditions) MTTETFVKDIKPGLKNLNLIFIVLETGRVTKTKDGHEVRTCKVADKTGSINISVWDDVGNLIQPGDIIRLTKGYASVFKGCLTLYTGRGGDLQKIGEFSMVYSEVPNFSEPNPEYSTQQAPNKAVQNDSNPSASQPTTGPSAASPASENQNGNGLSAPPGPGGGPHPPHTPSHPPSTRITRSQPNHTPAGPPGPSSNPVSNGKETRRSSKR", "values": [{"measurement": "binding result", "setting": "[1]", "result": "binds"}]}
{"protein": "recombinant hSSB1 (hexa-histidine tagged, wild type) (natural protein, human, UniProt Q9BQ15 1-211, looked up, Oxidized and reduced preparations are the same construct; also called his-hSSB1; hSSB1 WT; source: E. coli T7 shuffle strain (Δgor ΔtrxB), purified (SP sepharose, Ni-NTA, Superdex200); without reducing agents (\"oxidized\") or with 1 mM DTT in all buffers (\"reduced\")) MTTETFVKDIKPGLKNLNLIFIVLETGRVTKTKDGHEVRTCKVADKTGSINISVWDDVGNLIQPGDIIRLTKGYASVFKGCLTLYTGRGGDLQKIGEFCMVYSEVPNFSEPNPEYSTQQAPNKAVQNDSNPSASQPTTGPSAASPASENQNGNGLSAPPGPGGGPHPPHTPSHPPSTRITRSQPNHTPAGPPGPSSNPVSNGKETRRSSKR", "values": [{"measurement": "stoichiometry N", "setting": "[2]", "result": "> 3"}, {"measurement": "stoichiometry N", "setting": "[1]", "result": 2}]}
{"protein": "human single-stranded DNA binding protein 1 (hSSB1), endogenous (natural protein, human (endogenous in U2OS), UniProt Q9BQ15 1-211, looked up, also called NABP2; OBFC2B; source: endogenous, U2OS whole cell lysate) MTTETFVKDIKPGLKNLNLIFIVLETGRVTKTKDGHEVRTCKVADKTGSINISVWDDVGNLIQPGDIIRLTKGYASVFKGCLTLYTGRGGDLQKIGEFCMVYSEVPNFSEPNPEYSTQQAPNKAVQNDSNPSASQPTTGPSAASPASENQNGNGLSAPPGPGGGPHPPHTPSHPPSTRITRSQPNHTPAGPPGPSSNPVSNGKETRRSSKR", "values": [{"measurement": "stoichiometry N", "setting": "[3]", "result": "~4"}]}
{"protein": "recombinant C81S hSSB1 (natural protein, human, UniProt Q9BQ15 1-211, looked up, human hSSB1 (NABP2/OBFC2B) with cysteine 81 mutated to serine; source: E. coli T7 shuffle strain, purified under non-reducing conditions) MTTETFVKDIKPGLKNLNLIFIVLETGRVTKTKDGHEVRTCKVADKTGSINISVWDDVGNLIQPGDIIRLTKGYASVFKGSLTLYTGRGGDLQKIGEFCMVYSEVPNFSEPNPEYSTQQAPNKAVQNDSNPSASQPTTGPSAASPASENQNGNGLSAPPGPGGGPHPPHTPSHPPSTRITRSQPNHTPAGPPGPSSNPVSNGKETRRSSKR", "values": [{"measurement": "binding result", "setting": "[1]", "result": "binds"}]}
